Molecular target: T1, mCherry-BARD1 (UniProt Q99728 1-777)
T1 construct: also called BRCA1 Associated RING Domain 1; source: HeLa, transfected, in live cells and in lysate
T1 sequence (looked up): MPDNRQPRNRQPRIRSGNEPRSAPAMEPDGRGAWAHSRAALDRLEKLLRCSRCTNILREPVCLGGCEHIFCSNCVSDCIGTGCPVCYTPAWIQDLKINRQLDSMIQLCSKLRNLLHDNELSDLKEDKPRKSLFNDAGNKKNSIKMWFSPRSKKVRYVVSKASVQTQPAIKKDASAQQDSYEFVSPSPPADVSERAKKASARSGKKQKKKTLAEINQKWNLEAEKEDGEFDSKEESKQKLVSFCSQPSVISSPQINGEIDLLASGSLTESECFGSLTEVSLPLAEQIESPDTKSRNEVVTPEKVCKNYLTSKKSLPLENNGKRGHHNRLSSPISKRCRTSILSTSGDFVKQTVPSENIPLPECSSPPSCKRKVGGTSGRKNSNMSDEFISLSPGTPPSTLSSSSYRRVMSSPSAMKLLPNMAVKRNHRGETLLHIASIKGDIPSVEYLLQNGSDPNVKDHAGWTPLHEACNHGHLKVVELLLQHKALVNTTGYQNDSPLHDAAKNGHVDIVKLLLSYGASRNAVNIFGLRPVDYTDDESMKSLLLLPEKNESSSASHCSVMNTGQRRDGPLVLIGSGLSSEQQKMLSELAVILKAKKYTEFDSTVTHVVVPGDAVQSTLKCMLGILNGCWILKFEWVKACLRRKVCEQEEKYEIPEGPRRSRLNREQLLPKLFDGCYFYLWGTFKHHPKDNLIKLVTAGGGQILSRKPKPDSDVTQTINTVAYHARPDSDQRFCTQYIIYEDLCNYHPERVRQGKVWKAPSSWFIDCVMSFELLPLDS
Assay: fluorescence cross-correlation spectroscopy (FCCS); GFP- and mCherry-tagged proteins co-expressed in live HeLa cells; focal volume in the nucleoplasm (MSH2-MSH6 also in the cytoplasm); room temperature; cross-correlation/autocorrelation ratio
Conditions: partners not purified

reduction in binding relative to wild type: ~50%
B1: GFP-BRCA1-C44F (natural protein, UniProt P38398 1-1863, looked up)
chain: MDLSALRVEEVQNVINAMQKILECPICLELIKEPVSTKCDHIFFKFCMLKLLNQKKGPSQCPLCKNDITKRSLQESTRFSQLVEELLKIICAFQLDTGLEYANSYNFAKKENNSPEHLKDEVSIIQSMGYRNRAKRLLQSEPENPSLQETSLSVQLSNLGTVRTLRTKQRIQPQKTSVYIELGSDSSEDTVNKATYCSVGDQELLQITPQGTRDEISLDSAKKAACEFSETDVTNTEHHQPSNNDLNTTEKRAAERHPEKYQGSSVSNLHVEPCGTNTHASSLQHENSSLLLTKDRMNVEKAEFCNKSKQPGLARSQHNRWAGSKETCNDRRTPSTEKKVDLNADPLCERKEWNKQKLPCSENPRDTEDVPWITLNSSIQKVNEWFSRSDELLGSDDSHDGESESNAKVADVLDVLNEVDEYSGSSEKIDLLASDPHEALICKSERVHSKSVESNIEDKIFGKTYRKKASLPNLSHVTENLIIGAFVTEPQIIQERPLTNKLKRKRRPTSGLHPEDFIKKADLAVQKTPEMINQGTNQTEQNGQVMNITNSGHENKTKGDSIQNEKNPNPIESLEKESAFKTKAEPISSSISNMELELNIHNSKAPKKNRLRRKSSTRHIHALELVVSRNLSPPNCTELQIDSCSSSEEIKKKKYNQMPVRHSRNLQLMEGKEPATGAKKSNKPNEQTSKRHDSDTFPELKLTNAPGSFTKCSNTSELKEFVNPSLPREEKEEKLETVKVSNNAEDPKDLMLSGERVLQTERSVESSSISLVPGTDYGTQESISLLEVSTLGKAKTEPNKCVSQCAAFENPKGLIHGCSKDNRNDTEGFKYPLGHEVNHSRETSIEMEESELDAQYLQNTFKVSKRQSFAPFSNPGNAEEECATFSAHSGSLKKQSPKVTFECEQKEENQGKNESNIKPVQTVNITAGFPVVGQKDKPVDNAKCSIKGGSRFCLSSQFRGNETGLITPNKHGLLQNPYRIPPLFPIKSFVKTKCKKNLLEENFEEHSMSPEREMGNENIPSTVSTISRNNIRENVFKEASSSNINEVGSSTNEVGSSINEIGSSDENIQAELGRNRGPKLNAMLRLGVLQPEVYKQSLPGSNCKHPEIKKQEYEEVVQTVNTDFSPYLISDNLEQPMGSSHASQVCSETPDDLLDDGEIKEDTSFAENDIKESSAVFSKSVQKGELSRSPSPFTHTHLAQGYRRGAKKLESSEENLSSEDEELPCFQHLLFGKVNNIPSQSTRHSTVATECLSKNTEENLLSLKNSLNDCSNQVILAKASQEHHLSEETKCSASLFSSQCSELEDLTANTNTQDPFLIGSSKQMRHQSESQGVGLSDKELVSDDEERGTGLEENNQEEQSMDSNLGEAASGCESETSVSEDCSGLSSQSDILTTQQRDTMQHNLIKLQQEMAELEAVLEQHGSQPSNSYPSIISDSSALEDLRNPEQSTSEKAVLTSQKSSEYPISQNPEGLSADKFEVSADSSTSKNKEPGVERSSPSKCPSLDDRWYMHSCSGSLQNRNYPSQEELIKVVDVEEQQLEESGPHDLTETSYLPRQDLEGTPYLESGISLFSDDPESDPSEDRAPESARVGNIPSSTSALKVPQLKVAESAQSPAAAHTTDTAGYNAMEESVSREKPELTASTERVNKRMSMVVSGLTPEEFMLVYKFARKHHITLTNLITEETTHVVMKTDAEFVCERTLKYFLGIAGGKWVVSYFWVTQSIKERKMLNEHDFEVRGDVVNGRNHQGPKRARESQDRKIFRGLEICCYGPFTNMPTDQLEWMVQLCGASVVKELSSFTLGTGVHPIVVVQPDAWTEDNGFHAIGQMCEAPVVTREWVLDSVALYQCQELDTYLIPQIPHSHY
notes: also called p.Cys44Phe; source: HeLa, transfected, in live cells
